Experimental data taken from US20220340684A1.
pKd: −log10 of the molar value.

What was measured:
[1] = biological target: Recombinant human TRIM21 PRYSPRY domain (His-tagged, expressed in E. coli BL21 (DE3)) (human) (UniProt P19474); experiment: SPR (ProteON XPR36), antibody amine-coupled to GLC chip, TRIM21 PRYSPRY as analyte, Langmuir 1:1
[2] = biological target: Recombinant human TRIM21 PRYSPRY domain (His-tagged, expressed in E. coli BL21 (DE3)) (human) (UniProt P19474); experiment: SPR, antibody immobilized, TRIM21 PRYSPRY as analyte
[3] = biological target: Human TRIM21 (endogenous, cytosolic, in moDC and HeLa cells) (human) (UniProt P19474); experiment: cell-based or functional assay
[4] = biological target: Recombinant human TRIM21 PRYSPRY domain (His-tagged, expressed in E. coli BL21 (DE3)) (human) (UniProt P19474); experiment: SPR, antibody immobilized, TRIM21 PRYSPRY as analyte; the column's head prints (M), the text gives 125 nM

Recombinant human TRIM21 PRYSPRY domain (His-tagged, expressed in E. coli BL21 (DE3)) (human), sequence (P19474 287-475): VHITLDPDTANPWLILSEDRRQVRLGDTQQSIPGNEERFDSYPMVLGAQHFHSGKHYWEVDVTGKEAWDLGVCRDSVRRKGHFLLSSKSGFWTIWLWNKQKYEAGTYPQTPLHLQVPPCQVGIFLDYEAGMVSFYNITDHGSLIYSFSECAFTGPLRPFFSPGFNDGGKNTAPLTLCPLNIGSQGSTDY
Human TRIM21 (endogenous, cytosolic, in moDC and HeLa cells) (human), sequence (P19474 whole entry, the tested form may be a part): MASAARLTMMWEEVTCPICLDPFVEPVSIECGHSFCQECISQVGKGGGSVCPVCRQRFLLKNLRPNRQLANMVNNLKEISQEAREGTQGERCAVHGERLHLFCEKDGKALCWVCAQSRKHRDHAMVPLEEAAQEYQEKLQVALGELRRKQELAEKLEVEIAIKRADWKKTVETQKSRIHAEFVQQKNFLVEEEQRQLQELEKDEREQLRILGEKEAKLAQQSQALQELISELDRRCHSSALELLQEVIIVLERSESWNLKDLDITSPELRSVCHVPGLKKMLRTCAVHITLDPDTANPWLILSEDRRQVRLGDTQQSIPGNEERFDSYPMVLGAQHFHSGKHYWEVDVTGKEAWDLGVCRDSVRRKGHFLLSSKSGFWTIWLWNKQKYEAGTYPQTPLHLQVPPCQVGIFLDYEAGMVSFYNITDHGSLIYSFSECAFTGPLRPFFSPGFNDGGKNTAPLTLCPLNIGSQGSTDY

| Substance | pKd [2] | further results |
| --- | --- | --- |
| Fc-unmodified human IgG1 (anti-DEC205, variable domains of 3G9-2D2, wildtype human IgG1 constant regions) (antibody) |  | pKd [1]: 7.33 |
| V1 chimeric IgG1 (9C12 variable domains, human IgG1 with 256P/434R/436F/440I Fc) (antibody) | 7.97 |  |
| V2 chimeric IgG1 (9C12 variable domains, human IgG1 with 256P/433T/436F/440I Fc) (antibody) | 5.79 |  |
| V3 chimeric IgG1 (9C12 variable domains, human IgG1 with 256P/433T/434R/440I Fc) (antibody) | 9.68 |  |
| V4 chimeric IgG1 (9C12 variable domains, human IgG1 with 256P/433T/434R/436F Fc) (antibody) | 9.56 |  |
| V5 chimeric IgG1 (9C12 variable domains, human IgG1 with 433T/434R/436F/440I Fc, Thr at 256) (antibody) | 7.63 |  |
| Wildtype chimeric IgG1 (anti-Ad5 hexon, mouse 9C12 variable domains, wildtype human IgG1 constant regions) (antibody) |  | IC50 of ADIN of Ad5-eGFP infection in moDCs, MOI 400 [3]: 3 nM; IC50 of antibody-dependent intracellular neutralization (ADIN) of Ad5-eGFP infection in HeLa cells, MOI 1.2 [3]: 900 nM; pKd [4]: 6.90 |
